Results reported in the supplement of paper PMC10201428.
± gives the standard deviation of the averaged measurements.

B1: library; a variant is named by its letters at N, in order (parent)
chain: ACATTTGTTGATACAACCATAAAATGATAATTACACCCATAAATTGATAATTATCACACCCANNNNNNNNNNNNNNCTCTGATCATAGTCAGACCAACATTGCTACGACCCGTATTCGCACCGACAC

How the values were obtained:
[1] = variants of: B1; assay: relative integration efficiency (T-RL orientation) vs wild-type transposon end (log2 (normalized fold change)); transposon end mutated: right end (5 bp flank + 75 bp right end); higher = more efficient transposition; conditions: with VchCAST RNA-guided transposition machinery (E. coli BL21(DE3) host, lacZ target)
In short: (§1)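 Relative integration efficiency is a fold change of output over input barcode abundance, normalised to reference barcodes and log-transformed. Input plasmids and genomic integration junctions were PCR-amplified and Illumina-sequenced from E. coli BL21(DE3) co-transformed with a T7-driven effector plasmid and pUC57 donor pools of 1549 left-end or 1849 right-end transposon variants. Plating was done with 0.1 mM IPTG at 37°C for 18 h, with two biological output replicates and four reference barcodes.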

[2] = variants of: B1; assay: relative integration efficiency (T-LR orientation) vs wild-type transposon end (log2 (normalized fold change)); transposon end mutated: right end (5 bp flank + 75 bp right end); higher = more efficient transposition; conditions: with VchCAST RNA-guided transposition machinery (E. coli BL21(DE3) host, lacZ target)
In short: as §1

Row | Variant | relative integration efficiency (log2) [1] | relative integration efficiency (log2) [2]
1 | TAAATTGATATTGC C37T | -0.229 ± 0.057 | -0.304 ± 0.57
2 | TAAATTGATATTGC C38A | -0.117 ± 0.04 | -0.451 ± 0.24
3 | TAAATTGATATTGC C38G | 0.03 ± 0.16 | -0.489 ± 0.06
4 | TAAATTGATATTGC C38T | 0.335 ± 0.044 | -0.111 ± 0.49
5 | TAAATTGATATTGC C55A | -0.759 ± 0.066 | 0.402 ± 0.41
6 | TAAATTGATATTGC C55G | -0.145 ± 0.21 | 0.0542 ± 0.17
7 | TAAATTGATATTGC C55T | -0.293 ± 0.17 | 0.175 ± 0.29
8 | TAAATTGATATTGC C57A | -0.104 ± 0.063 | 0.461 ± 0.12
9 | TAAATTGATATTGC C57G | -0.05 ± 0.075 | 1.552 ± 0.015
10 | TAAATTGATATTGC C57T | -0.204 ± 0.0024 | 0.91 ± 0.032
11 | TAAATTGATATTGC C59A | 0.048 ± 0.078 | -0.0286 ± 0.31
12 | TAAATTGATATTGC C59G | -0.141 ± 0.043 | 0.747 ± 0.024
13 | TAAATTGATATTGC C59T | -0.0651 ± 0.0017 | 0.538 ± 0.076
14 | TAAATTGATATTGC C60A | -0.462 ± 0.027 | 1.55 ± 0.14
15 | TAAATTGATATTGC C60G | 0.0119 ± 0.012 | 0.315 ± 0.03
16 | TAAATTGATATTGC C60T | -0.182 ± 0.028 | 0.2 ± 0.2
17 | TAAATTGATATTGC C61A | -0.241 ± 0.071 | 1.04 ± 0.15
18 | TAAATTGATATTGC C61G | 0.142 ± 0.018 | 0.81 ± 0.3
19 | TAAATTGATATTGC C61T | -0.0918 ± 0.017 | 0.755 ± 0.17

Row | Variant | relative integration efficiency (log2) [1] | relative integration efficiency (log2) [2]
20 | TAAATTGATATTGC C77A | -0.111 ± 0.093 | -0.0608 ± 0.27
21 | TAAATTGATATTGC C77G | 0.0121 ± 0.017 | -0.217 ± 0.018
22 | TAAATTGATATTGC C77T | -0.00923 ± 0.0046 | -0.351 ± 0.044
23 | TAAATTGATATTGC C79A | -0.158 ± 0.087 | -0.334 ± 0.18
24 | TAAATTGATATTGC C79G | -0.0645 ± 0.0099 | -0.196 ± 0.19
25 | TAAATTGATATTGC C79T | 0.00455 ± 0.031 | -0.191 ± 0.27
26 | TAAATTGATATTGC G7A | -0.0765 ± 0.034 | -0.974 ± 0.015
27 | TAAATTGATATTGC G7C | -0.529 ± 0.13 | -1.41 ± 0.63
28 | TAAATTGATATTGC G7T | -2.2 ± 0.4 | -3.44 ± 0.49
29 | TAAATTGATATTGC G10A | 0.115 ± 0.017 | -0.464 ± 0.17
30 | TAAATTGATATTGC G10C | -0.405 ± 0.069 | -1.81 ± 0.24
31 | TAAATTGATATTGC G10T | -0.7118 ± 0.001 | -1.93 ± 0.22
32 | TAAATTGATATTGC G26A | -0.553 ± 0.15 | -0.268 ± 0.011
33 | TAAATTGATATTGC G26C | -1.71 ± 0.29 | -1.36 ± 0.46
34 | TAAATTGATATTGC G26T | -0.472 ± 0.11 | -0.0416 ± 0.43
35 | TAAATTGATATTGC G46A | -0.369 ± 0.054 | -0.642 ± 0.19
36 | TAAATTGATATTGC G46C | -0.936 ± 0.067 | -0.847 ± 0.31
37 | TAAATTGATATTGC G46T | -0.423 ± 0.077 | -0.734 ± 0.14
38 | TAAATTGATATTGC T4A | -0.153 ± 0.014 | -0.113 ± 0.32

Row | Variant | relative integration efficiency (log2) [1] | relative integration efficiency (log2) [2]
39 | TAAATTGATATTGC T4C | -0.0535 ± 0.0038 | -0.0603 ± 0.29
40 | TAAATTGATATTGC T4G | -0.1742 ± 0.00091 | 0.405 ± 0.34
41 | TAAATTGATATTGC T5A | 0.0941 ± 0.11 | 0.163 ± 0.31
42 | TAAATTGATATTGC T5C | -0.234 ± 0.068 | -0.488 ± 0.12
43 | TAAATTGATATTGC T5G | -0.23 ± 0.018 | -0.319 ± 0.36
44 | TAAATTGATATTGC T6A | -5.81 ± 0.51 | -5.94 ± 1.9
45 | TAAATTGATATTGC T6C | -1.81 ± 0.2 | -2.11 ± 0.46
46 | TAAATTGATATTGC T6G | -6.66 ± 0.074 | -5.28 ± 0.39
47 | TAAATTGATATTGC T8A | -0.814 ± 0.13 | -1.99 ± 0.69
48 | TAAATTGATATTGC T8C | -0.808 ± 0.29 | -2.19 ± 0.042
49 | TAAATTGATATTGC T8G | -5.89 ± 0.83 | -3.6 ± 0.47
50 | TAAATTGATATTGC T9A | -0.0594 ± 0.085 | -0.234 ± 0.3
51 | TAAATTGATATTGC T9C | 0.234 ± 0.012 | 0.331 ± 0.42
52 | TAAATTGATATTGC T9G | 0.104 ± 0.038 | 0.0503 ± 0.46
53 | TAAATTGATATTGC T12A | -0.107 ± 0.031 | -0.916 ± 0.17
54 | TAAATTGATATTGC T12C | -0.235 ± 0.019 | -0.906 ± 0.64
55 | TAAATTGATATTGC T12G | -0.147 ± 0.043 | -1.06 ± 0.57
56 | TAAATTGATATTGC T20A | -0.299 ± 0.1 | -0.359 ± 0.083
57 | TAAATTGATATTGC T20C | -0.448 ± 0.19 | -0.577 ± 0.33
